# Laboratory results taken from PMC9482650, “Quantitative fragmentomics allow affinity mapping of interactomes” (Nature Communications, 2022).
# Biological target: Q6ZWJ1
# Experiment: holdup assay
# Set-up: key: below the threshold = too weak to quantify, mostly under pKd 3.1 to 4
# Conditions: plain residues with an end cap or a label only (N-terminal biotin on a linker: ttds)
row,Binder,pKd
1,"NYWPGKETQL [SLCO1C1, Q9NYB5]",below the threshold
2,"RTRQRNETQV [HPV51-E6, P26554]",below the threshold

# Biological target: Q9H190
# Experiment: holdup assay
# Set-up: key: below the threshold = too weak to quantify, mostly under pKd 3.1 to 4
# Conditions: plain residues with an end cap or a label only (N-terminal biotin on a linker: ttds)
row,Binder,pKd
1,"NYWPGKETQL [SLCO1C1, Q9NYB5]",below the threshold
2,"RTRQRNETQV [HPV51-E6, P26554]",below the threshold

# Biological target: O00233
# Experiment: holdup assay
# Set-up: key: below the threshold = too weak to quantify, mostly under pKd 3.1 to 4
# Conditions: plain residues with an end cap or a label only (N-terminal biotin on a linker: ttds)
row,Binder,pKd
1,"NYWPGKETQL [SLCO1C1, Q9NYB5]",below the threshold
2,"RTRQRNETQV [HPV51-E6, P26554]",below the threshold

# Biological target: Q12923
# Experiment: holdup assay
# Set-up: key: below the threshold = too weak to quantify, mostly under pKd 3.1 to 4
# Conditions: plain residues with an end cap or a label only (N-terminal biotin on a linker: ttds)
row,Binder,pKd
1,"NYWPGKETQL [SLCO1C1, Q9NYB5]",below the threshold
2,"RTRQRNETQV [HPV51-E6, P26554]",below the threshold

# Biological target: Q92614
# Experiment: holdup assay
# Set-up: key: below the threshold = too weak to quantify, mostly under pKd 3.1 to 4
# Conditions: plain residues with an end cap or a label only (N-terminal biotin on a linker: ttds)
row,Binder,pKd
1,"NYWPGKETQL [SLCO1C1, Q9NYB5]",below the threshold
2,"RTRQRNETQV [HPV51-E6, P26554]",below the threshold

# Biological target: Q8TDM6
# Experiment: holdup assay
# Set-up: key: below the threshold = too weak to quantify, mostly under pKd 3.1 to 4
# Conditions: plain residues with an end cap or a label only (N-terminal biotin on a linker: ttds)
row,Binder,pKd
1,"NYWPGKETQL [SLCO1C1, Q9NYB5]",below the threshold
2,"RTRQRNETQV [HPV51-E6, P26554]",below the threshold

# Biological target: O60759
# Experiment: holdup assay
# Set-up: key: below the threshold = too weak to quantify, mostly under pKd 3.1 to 4
# Conditions: plain residues with an end cap or a label only (N-terminal biotin on a linker: ttds)
row,Binder,pKd
1,"NYWPGKETQL [SLCO1C1, Q9NYB5]",below the threshold
2,"RTRQRNETQV [HPV51-E6, P26554]",below the threshold

# Biological target: Q9UDY2
# Experiment: holdup assay
# Set-up: key: below the threshold = too weak to quantify, mostly under pKd 3.1 to 4
# Conditions: plain residues with an end cap or a label only (N-terminal biotin on a linker: ttds)
row,Binder,pKd
1,"NYWPGKETQL [SLCO1C1, Q9NYB5]",below the threshold
2,"RTRQRNETQV [HPV51-E6, P26554]",below the threshold

# Biological target: Q8TEW0
# Experiment: holdup assay
# Set-up: key: below the threshold = too weak to quantify, mostly under pKd 3.1 to 4
# Conditions: plain residues with an end cap or a label only (N-terminal biotin on a linker: ttds)
row,Binder,pKd
1,"NYWPGKETQL [SLCO1C1, Q9NYB5]",below the threshold
2,"RTRQRNETQV [HPV51-E6, P26554]",below the threshold

# Biological target: T1, CNKSR1, Q969H4
# T1 sequence (Q969H4 191-295, limits assumed, looked up): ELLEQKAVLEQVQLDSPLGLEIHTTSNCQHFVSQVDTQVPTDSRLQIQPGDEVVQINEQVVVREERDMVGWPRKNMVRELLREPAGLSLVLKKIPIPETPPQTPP
# Experiment: holdup assay
# Set-up: key: below the threshold = too weak to quantify, mostly under pKd 3.1 to 4
# Conditions: plain residues with an end cap or a label only (N-terminal biotin on a linker: ttds)
row,Binder,pKd
1,"NYWPGKETQL [SLCO1C1, Q9NYB5]",below the threshold
2,"RTRQRNETQV [HPV51-E6, P26554]",4.44

# Biological target: Q70Z35
# Experiment: holdup assay
# Set-up: key: below the threshold = too weak to quantify, mostly under pKd 3.1 to 4
# Conditions: plain residues with an end cap or a label only (N-terminal biotin on a linker: ttds)
row,Binder,pKd
1,"NYWPGKETQL [SLCO1C1, Q9NYB5]",below the threshold
2,"RTRQRNETQV [HPV51-E6, P26554]",below the threshold

# Biological target: Q9NR12
# Experiment: holdup assay
# Set-up: key: below the threshold = too weak to quantify, mostly under pKd 3.1 to 4
# Conditions: plain residues with an end cap or a label only (N-terminal biotin on a linker: ttds)
row,Binder,pKd
1,"NYWPGKETQL [SLCO1C1, Q9NYB5]",below the threshold
2,"RTRQRNETQV [HPV51-E6, P26554]",below the threshold

# Biological target: Q96JY6
# Experiment: holdup assay
# Set-up: key: below the threshold = too weak to quantify, mostly under pKd 3.1 to 4
# Conditions: plain residues with an end cap or a label only (N-terminal biotin on a linker: ttds)
row,Binder,pKd
1,"NYWPGKETQL [SLCO1C1, Q9NYB5]",below the threshold
2,"RTRQRNETQV [HPV51-E6, P26554]",below the threshold

# Biological target: Q96JB8
# Experiment: holdup assay
# Set-up: key: below the threshold = too weak to quantify, mostly under pKd 3.1 to 4
# Conditions: plain residues with an end cap or a label only (N-terminal biotin on a linker: ttds)
row,Binder,pKd
1,"NYWPGKETQL [SLCO1C1, Q9NYB5]",below the threshold
2,"RTRQRNETQV [HPV51-E6, P26554]",below the threshold

# Biological target: Q8TB45
# Experiment: holdup assay
# Set-up: key: below the threshold = too weak to quantify, mostly under pKd 3.1 to 4
# Conditions: plain residues with an end cap or a label only (N-terminal biotin on a linker: ttds)
row,Binder,pKd
1,"NYWPGKETQL [SLCO1C1, Q9NYB5]",below the threshold
2,"RTRQRNETQV [HPV51-E6, P26554]",below the threshold

# Biological target: Q9NPB6
# Experiment: holdup assay
# Set-up: key: below the threshold = too weak to quantify, mostly under pKd 3.1 to 4
# Conditions: plain residues with an end cap or a label only (N-terminal biotin on a linker: ttds)
row,Binder,pKd
1,"NYWPGKETQL [SLCO1C1, Q9NYB5]",below the threshold
2,"RTRQRNETQV [HPV51-E6, P26554]",below the threshold

# Biological target: O75970
# Experiment: holdup assay
# Set-up: key: below the threshold = too weak to quantify, mostly under pKd 3.1 to 4
# Conditions: plain residues with an end cap or a label only (N-terminal biotin on a linker: ttds)
row,Binder,pKd
1,"NYWPGKETQL [SLCO1C1, Q9NYB5]",below the threshold
2,"RTRQRNETQV [HPV51-E6, P26554]",below the threshold

# Biological target: T2, INTU, Q9ULD6
# T2 sequence (Q9ULD6 180-273, limits assumed, looked up): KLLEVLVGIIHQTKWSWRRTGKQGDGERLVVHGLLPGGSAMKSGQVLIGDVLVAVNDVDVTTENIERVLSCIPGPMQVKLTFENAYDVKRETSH
# Experiment: holdup assay
# Set-up: key: below the threshold = too weak to quantify, mostly under pKd 3.1 to 4
# Conditions: plain residues with an end cap or a label only (N-terminal biotin on a linker: ttds)
row,Binder,pKd
1,"NYWPGKETQL [SLCO1C1, Q9NYB5]",below the threshold
2,"RTRQRNETQV [HPV51-E6, P26554]",below the threshold

# Biological target: O00560
# Experiment: holdup assay
# Set-up: key: below the threshold = too weak to quantify, mostly under pKd 3.1 to 4
# Conditions: plain residues with an end cap or a label only (N-terminal biotin on a linker: ttds)
row,Binder,pKd
1,"NYWPGKETQL [SLCO1C1, Q9NYB5]",below the threshold
2,"RTRQRNETQV [HPV51-E6, P26554]",below the threshold

# Biological target: Q9P227
# Experiment: holdup assay
# Set-up: key: below the threshold = too weak to quantify, mostly under pKd 3.1 to 4
# Conditions: plain residues with an end cap or a label only (N-terminal biotin on a linker: ttds)
row,Binder,pKd
1,"NYWPGKETQL [SLCO1C1, Q9NYB5]",below the threshold
2,"RTRQRNETQV [HPV51-E6, P26554]",below the threshold

# Biological target: Q13368
# Experiment: holdup assay
# Set-up: key: below the threshold = too weak to quantify, mostly under pKd 3.1 to 4
# Conditions: plain residues with an end cap or a label only (N-terminal biotin on a linker: ttds)
row,Binder,pKd
1,"NYWPGKETQL [SLCO1C1, Q9NYB5]",below the threshold
2,"RTRQRNETQV [HPV51-E6, P26554]",below the threshold

# Biological target: Q9ULJ8
# Experiment: holdup assay
# Set-up: key: below the threshold = too weak to quantify, mostly under pKd 3.1 to 4
# Conditions: plain residues with an end cap or a label only (N-terminal biotin on a linker: ttds)
row,Binder,pKd
1,"NYWPGKETQL [SLCO1C1, Q9NYB5]",below the threshold
2,"RTRQRNETQV [HPV51-E6, P26554]",below the threshold

# Biological target: Q96FS4
# Experiment: holdup assay
# Set-up: key: below the threshold = too weak to quantify, mostly under pKd 3.1 to 4
# Conditions: plain residues with an end cap or a label only (N-terminal biotin on a linker: ttds)
row,Binder,pKd
1,"NYWPGKETQL [SLCO1C1, Q9NYB5]",below the threshold
2,"RTRQRNETQV [HPV51-E6, P26554]",below the threshold

# Biological target: T3, RGS12, O14924
# T3 sequence (O14924 17-108, limits assumed, looked up): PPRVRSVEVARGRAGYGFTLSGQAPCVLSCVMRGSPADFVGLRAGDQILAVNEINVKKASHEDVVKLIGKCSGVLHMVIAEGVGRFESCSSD
# Experiment: holdup assay
# Set-up: key: below the threshold = too weak to quantify, mostly under pKd 3.1 to 4
# Conditions: plain residues with an end cap or a label only (N-terminal biotin on a linker: ttds)
row,Binder,pKd
1,"NYWPGKETQL [SLCO1C1, Q9NYB5]",below the threshold
2,"RTRQRNETQV [HPV51-E6, P26554]",below the threshold

# Biological target: Q96SB3
# Experiment: holdup assay
# Set-up: key: below the threshold = too weak to quantify, mostly under pKd 3.1 to 4
# Conditions: plain residues with an end cap or a label only (N-terminal biotin on a linker: ttds)
row,Binder,pKd
1,"NYWPGKETQL [SLCO1C1, Q9NYB5]",below the threshold

# Biological target: GIPC3, Q8TF64
# Sequence (Q8TF64 107-202): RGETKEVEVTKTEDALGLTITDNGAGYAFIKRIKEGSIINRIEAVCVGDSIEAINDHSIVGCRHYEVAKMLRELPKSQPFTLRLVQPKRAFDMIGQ
# Experiment: holdup assay
# Set-up: key: below the threshold = too weak to quantify, mostly under pKd 3.1 to 4
# Conditions: plain residues with an end cap or a label only (N-terminal biotin on a linker: ttds)
row,Binder,pKd
1,"NYWPGKETQL [SLCO1C1, Q9NYB5]",below the threshold
2,"RTRQRNETQV [HPV51-E6, P26554]",below the threshold

# Biological target: Q9C0E4
# Experiment: holdup assay
# Set-up: key: below the threshold = too weak to quantify, mostly under pKd 3.1 to 4
# Conditions: plain residues with an end cap or a label only (N-terminal biotin on a linker: ttds)
row,Binder,pKd
1,"NYWPGKETQL [SLCO1C1, Q9NYB5]",below the threshold
2,"RTRQRNETQV [HPV51-E6, P26554]",below the threshold

# Biological target: Q9Y3R0
# Experiment: holdup assay
# Set-up: key: below the threshold = too weak to quantify, mostly under pKd 3.1 to 4
# Conditions: plain residues with an end cap or a label only (N-terminal biotin on a linker: ttds)
row,Binder,pKd
1,"NYWPGKETQL [SLCO1C1, Q9NYB5]",below the threshold
2,"RTRQRNETQV [HPV51-E6, P26554]",below the threshold
